Assay results from article PMC4121545.

Tested on: Lac-mCherry (lac repressor-mCherry fusion, dimeric) (Escherichia coli)
Test: in vitro transcription repression (indirect), global MWC fit
Conditions: no effector, R conformer (KRO); 20 mM Mg2+; 2 mM spermidine; 20 mM Tris-HCl pH 7.9, 20 mM MgCl2, 1 mM DTT, 2 mM spermidine-HCl, NTPs (0.5 mM GTP/ATP/UTP, 0.25 mM CTP), 37 C, 30 min

O1 operator reporter, linearized 450 bp
Ka: 0.42 nM⁻¹
